Laboratory results as given in the RNAGym collection of RNA variant scans (doi:10.1093/nar/gkz1192).

B1: CPEB3 Ribozyme (parent)
chain: UAACAGGGGGCCACAGCAGAAGCGUUCACGUCGCAGCCCCUGUCAGAUUCUGGUGAAUCUGCGAAUUCUGCUGUAUAUCUC

Variants of: B1
Experiment: self-cleavage, relative activity (ratio to wild type); higher = more cleavage; in vitro, sequencing
Method in brief: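 Barcoded CPEB3 ribozyme mutants, produced by rounds of error-prone PCR, self-cleaved while being transcribed with T7 RNA polymerase for 5 hours at 37°C and during a subsequent 15 min DNase I step before EDTA was added. Sequencing of template-switched cDNA on Illumina gave cleaved and total reads, and DNA sequencing assigned barcodes to variants. Each variant's relative activity is its cleaved/total read fraction divided by the unmutated ribozyme's fraction, averaged across three batches. A variant needed a minimum of 5 reads.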

Row | Variant | self-cleavage
1 | UAACAGGGGGCCACAGCAGAAGCGUUUACGUCGCAGCCCCUGUCAGAUUCUGGUGAAUCUGCGAAUUCUGCUGUAUAACUC | 0.16
2 | UAACAGGGGGCCACAGCAGAAGCGUUUACGUCGCAGCCCCUGUCAGAUUCUGGUGAAUCUGCGAAUUCUGCUGUAUACCUC | 0.44
3 | UAACAGGGGGCCACAGCAGAAGCGUUUACGUCGCAGCCCCUGUCAGAUUCUGGUGAAUCUGCGAAUUCUGCUGUAUAGCUC | 0.38
4 | UAACAGGGGGCCACAGCAGAAGCGUUUACGUCGCAGCCCCUGUCAGAUUCUGGUGAAUCUGCGAAUUCUGCUGUAUAUCAC | 0.29
5 | UAACAGGGGGCCACAGCAGAAGCGUUUACGUCGCAGCCCCUGUCAGAUUCUGGUGAAUCUGCGAAUUCUGCUGUAUAUCCC | 0.58
6 | UAACAGGGGGCCACAGCAGAAGCGUUCCCGUCGCAGCCCCUGUCAGAUUCUGGUGAAUCUGCGAAUUCUGCUGUAUAUCUC | 0.56
7 | UAACAGGGGGCCACAGCAGAAGCGUUCCCGUCGCCGCCCCUGUCAGAUUCUGGUGAAUCUGCGAAUUCUGCUGUAUAUCUC | 0.4
8 | UAACAGGGGGCCACAGCAGAAGCGUUCCCGUCGCGGCCCCUGUCAGAUUCUGGUGAAUCUGCGAAUUCUGCUGUAUAUCUC | 0.98
9 | UAACAGGGGGCCACAGCAGAAGCGUUCCCGUCGCUGCCCCUGUCAGAUUCUGGUGAAUCUGCGAAUUCUGCUGUAUAUCUC | 0.27
10 | UAACAGGGGGCCACAGCAGAAGCGUUCCCGUCGCAGCCCCUGUCGGAUUCUGGUGAAUCUGCGAAUUCUGCUGUAUAUCUC | 0.39
11 | UAACAGGGGGCCACAGCAGAAGCGUUCCCGUCGCAGCCCCUGUCAGCUUCUGGUGAAUCUGCGAAUUCUGCUGUAUAUCUC | 0.18
12 | UAACAGGGGGCCACAGCAGAAGCGUUCCCGUCGCAGCCCCUGUCAGAUUCUGGUGGAUCUGCGAAUUCUGCUGUAUAUCUC | 0.3
13 | UAACAGGGGGCCACAGCAGAAGCGUUCCCGUCGCAGCCCCUGUCAGAUUCUGGUGUAUCUGCGAAUUCUGCUGUAUAUCUC | 0.23
14 | UAACAGGGGGCCACAGCAGAAGCGUUCCCGUCGCAGCCCCUGUCAGAUUCUGGUGAGUCUGCGAAUUCUGCUGUAUAUCUC | 0.45
15 | UAACAGGGGGCCACAGCAGAAGCGUUCCCGUCGCAGCCCCUGUCAGAUUCUGGUGAAUCUGCGGAUUCUGCUGUAUAUCUC | 0.52
16 | UAACAGGGGGCCACAGCAGAAGCGUUCCCGUCGCAGCCCCUGUCAGAUUCUGGUGAAUCUGCGAGUUCUGCUGUAUAUCUC | 0.24
17 | UAACAGGGGGCCACAGCAGAAGCGUUCCCGUCGCAGCCCCUGUCAGAUUCUGGUGAAUCUGCGAUUUCUGCUGUAUAUCUC | 0.3

Row | Variant | self-cleavage
18 | UAACAGGGGGCCACAGCAGAAGCGUUCCCGUCGCAGCCCCUGUCAGAUUCUGGUGAAUCUGCGAAUUCUGCUGUGUAUCUC | 0.49
19 | UAACAGGGGGCCACAGCAGAAGCGUUCCCGUCGCAGCCCCUGUCAGAUUCUGGUGAAUCUGCGAAUUCUGCUGUAUGUCUC | 0.51
20 | UAACAGGGGGCCACAGCAGAAGCGUUCCCGUCGCAGCCCCUGUCAGAUUCUGGUGAAUCUGCGAAUUCUGCUGUAUUUCUC | 0.22
21 | UAACAGGGGGCCACAGCAGAAGCGUUCCCGUAGCAGCCCCUGUCAGAUUCUGGUGAAUCUGCGAAUUCUGCUGUAUAUCUC | 0.24
22 | UAACAGGGGGCCACAGCAGAAGCGUUCCCGUCGCAGCGCCUGUCAGAUUCUGGUGAAUCUGCGAAUUCUGCUGUAUAUCUC | 0.19
23 | UAACAGGGGGCCACAGCAGAAGCGUUCCCGUCGCAGCUCCUGUCAGAUUCUGGUGAAUCUGCGAAUUCUGCUGUAUAUCUC | 0.41
24 | UAACAGGGGGCCACAGCAGAAGCGUUCCCGUCGCAGCCCCUGUCAGAUUCUGGUGAAUCUGUGAAUUCUGCUGUAUAUCUC | 0.06
25 | UAACAGGGGGCCACAGCAGAAGCGUUCCCGUCGCAGCCCCUGUCAGAUUCUGGUGAAUCUGCGAAUUCUGGUGUAUAUCUC | 0.08
26 | UAACAGGGGGCCACAGCAGAAGCGUUCCCGUCGCAGCCCCUGUCAGAUUCUGGUGAAUCUGCGAAUUCUGUUGUAUAUCUC | 0.41
27 | UAACAGGGGGCCACAGCAGAAGCGUUCCCGUCGCAGCCCCUGUCAGAUUCUGGUGAAUCUGCGAAUUCUGCUGUAUAUUUC | 0.63
28 | UAACAGGGGGCCACAGCAGAAGCGUUCCCGUCGCAGCCCCUGUCAGAUUCUGGUGAAUCUGCGAAUUCUGCUGUAUAUCUU | 0.67
29 | UAACAGGGGGCCACAGCAGAAGCGUUCCCGUCGCAGCCCCUGUCAGAUUCUUGUGAAUCUGCGAAUUCUGCUGUAUAUCUC | 0.64
30 | UAACAGGGGGCCACAGCAGAAGCGUUCCCGUCGCAGCCCCUGUCAGAUUCUGGUUAAUCUGCGAAUUCUGCUGUAUAUCUC | 0.21
31 | UAACAGGGGGCCACAGCAGAAGCGUUCCCGUCGCAGCCCCUGUCAGAUUCUGGUGAAUCUACGAAUUCUGCUGUAUAUCUC | 0.48
32 | UAACAGGGGGCCACAGCAGAAGCGUUCCCGUCGCAGCCCCUGUCAGAUUCUGGUGAAUCUCCGAAUUCUGCUGUAUAUCUC | 0.19
33 | UAACAGGGGGCCACAGCAGAAGCGUUCCCGUCGCAGCCCCUGUCAGAUUCUGGUGAAUCUUCGAAUUCUGCUGUAUAUCUC | 0.2
34 | UAACAGGGGGCCACAGCAGAAGCGUUCCCGUCGCAGCCCCUGUCAGAUUCUGGUGAAUCUGCUAAUUCUGCUGUAUAUCUC | 0.41
